The results in this text go back to article PMC3688935, “Coordinated Binding of Single-Stranded and Double-Stranded DNA by UvsX Recombinase”.

This data set deals with UvsX recombinase (bacteriophage T4, UniProt P04529 1-391). Description: fluorescence quenching; no nucleotide cofactor; 20 mM Tris-HCl pH 7.4, 50 mM NaCl, 3 mM MgCl2, 25 C; DNA in nucleotides or base pairs; quadratic fit with 4 nt (bp) site size. Conditions: protein: recombinant; tags: none stated (pET27b, E. coli BL21(DE3)); label: AlexaFluor 546 on X (position 23); single strand.
Chain of UvsX recombinase (P04529 whole entry): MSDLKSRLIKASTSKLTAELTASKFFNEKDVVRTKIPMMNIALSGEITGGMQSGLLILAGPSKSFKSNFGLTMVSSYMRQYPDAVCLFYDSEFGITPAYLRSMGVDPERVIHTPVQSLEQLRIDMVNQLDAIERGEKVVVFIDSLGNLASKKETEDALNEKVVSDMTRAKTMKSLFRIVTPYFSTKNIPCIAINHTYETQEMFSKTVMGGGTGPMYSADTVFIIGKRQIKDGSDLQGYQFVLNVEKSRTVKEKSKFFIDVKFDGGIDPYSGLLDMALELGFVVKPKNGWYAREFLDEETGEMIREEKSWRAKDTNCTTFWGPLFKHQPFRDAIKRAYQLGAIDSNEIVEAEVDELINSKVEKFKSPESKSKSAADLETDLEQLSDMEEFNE

In the case of TTTTTTTTTTTTTTTTTTTTTTTTT (ssDNA, X at position 23 = amino-modifier C2 dT) [dT22XT2 ssDNA], the binding result was “binds”.
